The record followed here is patent publication US20050152926A1.

For assay [1], the target named is HLA A2 on RMA-S/A2 cells (human). In words: RMA-S/A2 HLA A2 stabilisation, BB7.2 FACS; 1 µM peptide; FIG 1(xii).
The target is the same in assay [2]. Put plainly: RMA-S/A2 HLA A2 stabilisation, BB7.2 FACS; 1 µM peptide; ΔMean minus highest HepB ΔMean.
Assay [3] shares this target. Put plainly: RMA-S/A2 HLA A2 stabilisation, BB7.2 FACS; 100 µM peptide; FIG 1(xxvi).
For assay [4] the target is unchanged. In words: RMA-S/A2 HLA A2 stabilisation, BB7.2 FACS; 100 µM peptide; ΔMean minus highest HepB ΔMean.
The target is the same in assay [5]. In words: RMA-S/A2 HLA A2 stabilisation, BB7.2 FACS; 100 µM peptide; FIG 3(xxiii).
Assay [6] shares this target. In words: RMA-S/A2 HLA A2 stabilisation, BB7.2 FACS; 100 µM peptide; FIG 2(x).
The target is the same in assay [7]. Put plainly: RMA-S/A2 HLA A2 stabilisation, BB7.2 FACS; 10 µM peptide; FIG 2(xi).
Assay [8] has the same target. Put plainly: RMA-S/A2 HLA A2 stabilisation, BB7.2 FACS; 10 µM peptide; ΔMean minus highest HepB ΔMean.
Assay [9] has the same target. Put plainly: RMA-S/A2 HLA A2 stabilisation, BB7.2 FACS; 100 µM peptide; FIG 3(xxv).
For assay [10] the target is unchanged. In words: RMA-S/A2 HLA A2 stabilisation, BB7.2 FACS; 100 µM peptide; FIG 1(xxi).
The target is the same in assay [11]. In words: RMA-S/A2 HLA A2 stabilisation, BB7.2 FACS; 100 µM peptide; FIG 3(xxiv).
The target is the same in assay [12]. In words: RMA-S/A2 HLA A2 stabilisation, BB7.2 FACS; 100 µM peptide; FIG 1(xxv).
The target is the same in assay [13]. Put plainly: RMA-S/A2 HLA A2 stabilisation, BB7.2 FACS; 100 µM peptide; FIG 2(xix).
Assay [14] has the same target. Put plainly: RMA-S/A2 HLA A2 stabilisation, BB7.2 FACS; 100 µM peptide; FIG 1(xxii).
Assay [15] has the same target. Put plainly: RMA-S/A2 HLA A2 stabilisation, BB7.2 FACS; 100 µM peptide; FIG 3(xx).
The target is the same in assay [16]. Put plainly: RMA-S/A2 HLA A2 stabilisation, BB7.2 FACS; 100 µM peptide; FIG 3(xxi).
For assay [17] the target is unchanged. In words: RMA-S/A2 HLA A2 stabilisation, BB7.2 FACS; 100 µM peptide; FIG 3(xix).
The target is the same in assay [18]. In words: RMA-S/A2 HLA A2 stabilisation, BB7.2 FACS; 100 µM peptide; FIG 3(xxii).

In [1], VLNLFFSAL (modifications not checked) [CH3] returned a Mean 2 of 419 and a Δ Mean of 224. In assay [2], this molecule had a High - B of 0.
As for ALMLLNNYV (modifications not checked) [CH20], in [3], the Mean 2 was 578 and the Δ Mean turned out to be 384. The molecule also displayed a High - B in assay [4] of 138.
In turn, ALWKENQAL (modifications not checked) [CH54] gave a Δ Mean in assay [5] of 251. Also, the High - B in assay [4] was found to be 91.
In assay [6], TLWGSFVDV (modifications not checked) [CH21] showed a Mean 2 of 440 and a Δ Mean of 275. The molecule further returned a High - B in [4] of 121.
In assay [7], WLFDLRFSV (modifications not checked) [CH22] yielded a Mean 2 of 390 and a Δ Mean of 227. In addition, the High - B in assay [8] was determined as 73.
In assay [9], NLAGGILSV (modifications not checked) [CH56] showed a Mean 2 of 383 and a Δ Mean of 240. In [4], the High - B worked out at 80.
In [10], YLTSYSPYV (modifications not checked) [CH15] came in with a Mean 2 of 557 and a Δ Mean of 322. The High - B in [4] stood at 76.
Regarding ALWGHNVLL (modifications not checked) [CH55], in [11], the Mean 2 was found to be 411 and the Δ Mean came to 258. In [4], the High - B was found to be 98.
Regarding LLLTLGYAV (modifications not checked) [CH19], in assay [12], the Mean 2 came to 436 and the Δ Mean was 240. In [4], this molecule registered a High - B of 0.
In assay [13], KLLKDHFDL (modifications not checked) [CH34] displayed a Mean 2 of 390 and a Δ Mean of 235. Besides, the High - B in assay [4] stood at 81.
In [14], VQLAYVFDV (modifications not checked) [CH16] had a Mean 2 of 433 and a Δ Mean of 232. In assay [4], this molecule yielded a High - B of 0.
In [15], NLSRQAFFA (modifications not checked) [CH51] yielded a Mean 2 of 311 and a Δ Mean of 179. The High - B in assay [4] was 19.
In [16], SLLEEHPVV (modifications not checked) [CH52] gave a Mean 2 of 396 and a Δ Mean of 249. Besides, in [4], the High - B turned out to be 89.
Consider SLCAQSSYV (modifications not checked) [CH50], for which, in [17], the Mean 2 stood at 381 and the Δ Mean was determined as 251. The molecule further registered a High - B in assay [4] of 91.
For the molecule NLWSHYTDL (modifications not checked) [CH53], in assay [18], the Mean 2 amounted to 350 and the Δ Mean was 209. Moreover, the High - B in assay [4] came out at 48.
